Measured values as given in publication PMC3506534, “LL-37 Induces Polymerization and Bundling of Actin and Affects Actin Structure” (PLoS ONE, 2012).
Read-outs that look alike come from different tables or passages of the source. No end group written: not given here.

Columns and labels:
Mg-F-actin [1] = biological target: T1, Mg-F-actin (Oryctolagus cuniculus, UniProt P68135); assay: Extent of Mg-F-actin bundling by low speed sedimentation; format: biochemical, rabbit; settings: for EC50: read-out: concentration for half maximal bundling
T1 construct: CaATP-G-actin was prepared from acetone dried powder derived from the back and leg muscles of rabbit by the method of Spudich and Watt; from tissue; host or cells: rabbit back and leg skeletal muscle (acetone dried powder)
Experimental: (§1) CaATP-G-actin was prepared from acetone dried powder derived from the back and leg muscles of rabbit by the method of Spudich and Watt that even without gel filtration yields highly homogeneous actin in purity greater than 90%. CaATP-G-actin was stored in a buffer containing 5 mM TrisHCl, 0.2 mM CaCl2, 0.2 mM ATP, 0.5 mM β-mercaptoethanol, pH 8.0 (CaATP-G-buffer). MgATP-G-actin was obtained by incubating CaATP-G-actin with 0.2 mM EGTA and 0.1 mM MgCl2 at room temperature for 5 min. MgATP-G-actin was diluted for further treatments in MgATP-G-buffer containing 5 mM MOPS, 0.1 mM MgCl2, 0.2 mM EGTA, 0.2 mM ATP and 0.5 mM DTT, pH 7.4. MgF-actin was polymerized from MgATP-G-actin or CaATP-G-actin by 30 min incubation with 2 mM MgCl2 at room temperature. The concentration of unlabeled rabbit skeletal muscle α-G-actin was determined spectrophotometrically using the extinction coefficients E^1% 290 = 11.5 cm^−1. (The optical density of actin was measured in the presence of 0.5 M NaOH, which shifts the maximum of absorbance from 280 nm to 290 nm). Molecular masses of skeletal actin, yeast cofilin, hen-lysozyme and LL-37 were assumed to be 42 kDa, 15.9 kDa, 14.3 kDa and 4.5 kDa respectively.
After addition of polycations, actin samples were centrifuged at 20,800×g at 4°C for 8 min (in an Eppendorf centrifuge). The supernatants were run using SDS-PAGE and analyzed by densitometry using the TINA 2.07d software.
Figure 3 LL-37, scrambled LL-37 and lysozyme induced bundle formation of Mg-F-actin at low and physiological (100 mM NaCl) ionic strength. (A) Kinetics of LL-37-induced bundle formation: LL-37 (2–8 µM) was added to MgF-actin (2 µM) and bundle formation was followed as an increase in light scattering at 350 nm. Presented data are representative of three independent experiments. (B) Extent of LL-37 and lysozyme induced bundle formation: LL-37 or lysozyme (0.5–9 µM) were added to Mg-F-actin (4 µM). Samples were centrifuged at 20,800×g, for 8 min and the supernatants were analyzed by SDS-PAGE and densitometry. (C) Extent of LL-37 and scrambled LL-37 induced bundle formation: LL-37 or scrambled LL-37 (2–14 µM) were added to MgF-actin (4 µM) and bundle formation was measured as in (B). The presented data are mean and standard deviation of three independent experiments in (B) and (C).

MgATP-G-actin [2] = biological target: T2, MgATP-G-actin (Oryctolagus cuniculus, UniProt P68135); assay: Polymerization of MgATP-G-actin at low ionic strength (pyrene fluorescence); format: biochemical, rabbit; settings: 2 µM MgATP-G-actin, 10% pyrene labeled; low ionic strength MgATP-G-buffer pH 7.4; 22°C; representative of three independent experiments
T2 construct: CaATP-G-actin was prepared from acetone dried powder derived from the back and leg muscles of rabbit by the method of Spudich and Watt; from tissue; host or cells: rabbit back and leg skeletal muscle (acetone dried powder)
Experimental: as §1, with “MgF-actin was polymerized from MgATP-G-actin or CaATP-G-actin by 30 min incubation with 2 mM MgCl2 at room temperature.” left out, “Molecular masses of skeletal actin, yeast cofilin, hen-lysozyme and LL-37 were assumed to be 42 kDa, 15.9 kDa, 14.3 kDa and 4.5 kDa respectively.” left out
(§2) Labeling of Mg-F-actin at Cys-374 with pyrene maleimide was carried out according to Kouyama and Mihashi with some modifications. […] The concentration of modified actin was determined by the procedure of Bradford using unmodified actin as a standard. The extent of labeling, which was measured by using pyrene extinction coefficient E344 nm = 22000 cm^−1M^−1, was ∼100%. […]

MgATP-G-actin [3] = biological target: T2, MgATP-G-actin; assay: Effect on MgCl2- or NaCl-induced polymerization of MgATP-G-actin (pyrene fluorescence); format: biochemical, rabbit; settings: 4 µM LL-37 or lysozyme added simultaneously with salt; 2 µM MgATP-G-actin, 10% pyrene labeled; 22°C
Experimental: as §1, with “MgF-actin was polymerized from MgATP-G-actin or CaATP-G-actin by 30 min incubation with 2 mM MgCl2 at room temperature.” left out, “Molecular masses of skeletal actin, yeast cofilin, hen-lysozyme and LL-37 were assumed to be 42 kDa, 15.9 kDa, 14.3 kDa and 4.5 kDa respectively.” left out
as §2

Mg-F-actin [4] = biological target: T1, Mg-F-actin; assay: NaCl concentration dependent stability of Mg-F-actin bundles (low speed sedimentation); format: biochemical, rabbit; settings: 4 µM MgF-actin bundled by 6 µM lysozyme or 10 µM sLL-37; 10 min room temperature
Experimental: as §1, with “MgF-actin was polymerized from MgATP-G-actin or CaATP-G-actin by 30 min incubation with 2 mM MgCl2 at room temperature.” left out, “Molecular masses of skeletal actin, yeast cofilin, hen-lysozyme and LL-37 were assumed to be 42 kDa, 15.9 kDa, 14.3 kDa and 4.5 kDa respectively.” left out
After addition of polycations, actin samples were centrifuged at 20,800×g at 4°C for 8 min (in an Eppendorf centrifuge). The supernatants were run using SDS-PAGE and analyzed by densitometry using the TINA 2.07d software. […]
Figure 4 NaCl concentration dependent bundling of MgF-actin by LL-37, lysozyme and sLL-37. […] The supernatants were analyzed by SDS-PAGE and densitometry. […]

Mg-F-actin [5] = biological target: T1, Mg-F-actin; settings: lysozyme; ref [20]; cited from earlier work
Experimental: Bundling kinetics of MgF-actin by LL-37, lysozyme and scrambled LL-37 were studied by increase in light scattering and the extent of bundling was determined using low speed centrifugation. The bundling of MgF-actin by LL-37 is also shown by electron microscopy (Figure S1). Mg-F-actin bundle formation was very fast both with LL-37 (Figure 3A) and lysozyme. The extent of bundling was dependent on the concentration and the nature of the polycation used (Figure 3B). At low ionic strength more than 50% of Mg-F-actin was bundled upon addition of lysozyme (1 µM) to Mg-F-actin (4 µM). A similar ...

[6] = tested on: LL-37-induced Mg-F-actin bundles; assay: Kinetics of dissociation of LL-37-induced Mg-F-actin bundles (light scattering); format: biochemical, rabbit; settings: 200 mM NaCl; 4 µM MgF-actin bundled by 9 µM LL-37; 450 nm
Experimental: Bundling of MgF-actin was followed by increase in light scattering [20]. The time course of light scattering changes was also measured in a PTI spectrofluorometer, with both excitation and emission wavelengths adjusted to 450 nm. All fluorescence and light scattering measurements were carried out at 22°C.
This was followed by the addition of 6 µM DNase1, cofilin, or 200 mM NaCl. Bundling and dissociation was monitored as a change in light scattering.
This was followed by the addition of 6 µM DNase1, 6 µM cofilin, or 200 mM NaCl (thick arrow). Bundling and dissociation were followed as an increase and decrease in light scattering, respectively, measured at 450 nm. Presented data are representative of three independent experiments.

[7] = gelsolin; ref [6]; cited from earlier work
Source text: LL-37-induced actin polymerization and bundling was chosen as the subject of this study. LL-37 is a 37 amino acid polycationic peptide with 6 net positive charges and is the only known member in human of the cathelicidin family of host defense peptides. In addition to its antimicrobial activity, the host defense activities of LL-37 include chemoattraction, cytokine release, tissue regeneration, inhibition of immunostimulation and apoptosis,[26]. […] There, it increases the F-actin content in the cyt ...

[8] = gelsolin; ref [30]; cited from earlier work
Source text: (§3) Bundles of actin filaments are major contributors to the viscosity of sputum in the airways of cystic fibrosis patients. LL-37, which also has been found in the sputum, may contribute to actin bundle formation. […] Here, we studied the effect of cofilin [39] and DNase1 on the stability of LL-37-induced bundles.

[9] = tested on: LL-37-induced Mg-F-actin bundles; settings: gelsolin; ref [38]; cited from earlier work
Source text: as §3

GLKLRFEFSKIKGEFLKTPEVRFRDIKLKDNRISVQR [Scrambled LL-37]
MgF-actin bundled (Mg-F-actin [1]; sLL-37 10 µM, 4 µM MgF-actin, low ionic strength): more than 60%

lysozyme: Hen lysozyme, antibacterial polycationic protein, 14.3 kDa, from Sigma
concentration giving polymerization of MgATP-G-actin (MgATP-G-actin [2]): 1 µM | effect on polymerization induced by 2 mM MgCl2 or 100 mM NaCl (MgATP-G-actin [3]): no inhibitory effect | EC50 (Mg-F-actin [1]; 4 µM Mg-F-actin, low ionic strength): 1 µM | EC50 (Mg-F-actin [1]; 4 µM Mg-F-actin, physiological ionic strength (100 mM NaCl)): 6 µM | Mg-F-actin bundled (Mg-F-actin [1]; lysozyme 1 µM, 4 µM Mg-F-actin, low ionic strength, 20,800×g 8 min, SDS-PAGE densitometry, three independent experiments): more than 50% | NaCl concentration at which bundle stability was decreased (Mg-F-actin [4]): 50 mM | NaCl concentration in which bundles completely dissociated (Mg-F-actin [4]): 150 mM | rate of Mg-F-actin bundle formation (Mg-F-actin [5]): very fast

[Cl-].[Na+] [NaCl]
rate and completeness of dissociation [6]: complete and very fast

Gelsolin
effect on LL-37 antibacterial activity [7]: restore | effect on sputum viscosity [8]: significantly reduce the viscosity of sputum | dissociation of LL-37-induced actin filament bundles [9]: dissociate LL-37-induced actin filament bundles
